The source of these data is publication PMC2845276 (The EMBO Journal, 2010).

Assay [1] addresses talin1 F0 domain (murine) (UniProt P26039).
In another assay the target is GST-talin head ΔF1 loop (mouse, UniProt P26039 1-433, lacking residues 133–165). Kind of assay: pull-down.
The next assay has as its target GST-talin head (mouse, UniProt P26039 1-433). Kind of assay: pull-down.

GMP.PNP-Rap1, sequence (P62834 whole entry): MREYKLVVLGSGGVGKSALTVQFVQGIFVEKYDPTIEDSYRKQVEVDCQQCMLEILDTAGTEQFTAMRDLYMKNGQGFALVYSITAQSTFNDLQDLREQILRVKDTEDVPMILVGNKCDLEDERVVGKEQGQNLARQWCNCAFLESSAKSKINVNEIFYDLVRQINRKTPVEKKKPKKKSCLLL

One may read the Kd as a measure of binding affinity in units of concentration. “GMP.PNP-Rap1 (from UniProt P62834 1-184) (natural protein)” displayed an equilibrium dissociation constant (Kd) in assay [1] of 140000 nM.
For KLLMIIHDRREFAKFEKEKMNAKWDTGENPIYKSAVTTVVNPKYEGK (domain or fragment, UniProt P05556-1 752-798, looked up) [β1A-integrin cytoplasmic tail (recombinant model protein)], the Kd in the assay with GST-talin head ΔF1 loop is 99 ± 20 nM; in the assay with GST-talin head, 124 ± 19 nM.
